# Where a chain is given by its changes, count along the chain named. In names and notes the source's numbering stands.
# B1: V6 expressed in E. coli (Trx-6xHis-tagged) (receptor)
# chain: LRLLDHRALVCSQEGLNCTVKNSTCLDDSWIHPRNLTPSSPKDLQIQLHFAHTQQGDLLPVAHIEWTLQTDASILYLEGAELSVLQLNTNERLCVRFEFLSKLRHHHKRWRFTFSHFVVDPGQEYEVTVHHLPKPIPDGDPNHQSKNFLVPDCEHARMKVTTPCMSSGSLWDPNITVETLEAHQLRVSFTLWNESTHYQILLTSFPHMENHSCFEHMHHIPAPRPEEFHQRSNVTLTLRNLKGCCRHQVQIQPFFSSCLNDCLRHSATVSCPEMPDTPEPIPDYMPLW
# notes: Tested as cleared E. coli lysate; not shown: N-terminal thioredoxin (Trx)-6xHistidine tag of pET32
# B2: V9 expressed in E. coli (Trx-6xHis-tagged) (receptor)
# chain: B1 chain with L9P, D43N, R96K, G122D
# notes: as for B1
# B3: hIL17RA-ECD variant V10 (Fc fusion)
# chain: B1 chain with L9P, E14P, L59V, A156P
# notes: also called V10M; not shown: human IgG1 engineered Fc (reduced ADCC/CDC) from the expression vector
# B4: hIL17RA-ECD variant V3 (Fc fusion)
# chain: B1 chain with L9P, E14P, L59F, H155D, G243W, A267V
# notes: also called hIL-17R-V3; hIL17R-V3; not shown: human IgG1 engineered Fc (reduced ADCC/CDC) from the expression vector
# B5: V3M V268A (Fc fusion)
# chain: B1 chain with L9P, E14P, L59F, H155D, G243W
# notes: Expressed in mammalian cells; also called V3 V268A; not shown: human IgG1 engineered Fc from the mammalian expression vector
# B6: V3 P10L (Fc fusion)
# chain: B1 chain with E14P, L59F, H155D, G243W, A267V
# notes: Expressed in mammalian cells; not shown: human IgG1 engineered Fc from the mammalian expression vector
# B7: V3 K109R (Fc fusion)
# chain: B1 chain with L9P, E14P, L59F, K108R, H155D, G243W, A267V
# notes: as for B6
# B8: V3 W244G (Fc fusion)
# chain: B1 chain with L9P, E14P, L59F, H155D, A267V
# notes: as for B6
# B9: V10 V60F (Fc fusion)
# chain: B1 chain with L9P, E14P, L59F, A156P
# notes: as for B6
# B10: V10 K109R (Fc fusion)
# chain: B1 chain with L9P, E14P, L59V, K108R, A156P
# notes: as for B6
# B11: V1 expressed in E. coli (Trx-6xHis-tagged) (receptor)
# chain: B1 chain with D43N, G122D, H155D, R239S
# notes: as for B1
# B12: V11 expressed in E. coli (Trx-6xHis-tagged) (receptor)
# chain: B1 chain with L59F, G122D, Q123R, A156P
# notes: as for B1
# B13: V19 expressed in E. coli (Trx-6xHis-tagged) (receptor)
# chain: B1 chain with R7Q, L44I, K108R, G122D
# notes: as for B1
# B14: V7 expressed in E. coli (Trx-6xHis-tagged) (receptor)
# chain: B1 chain with E14P, L59V, G122D, H155D
# notes: as for B1
# B15: V21 expressed in E. coli (Trx-6xHis-tagged) (receptor)
# chain: B1 chain with E14P, A156P, E181K, T203I
# notes: as for B1
# B16: V13 expressed in E. coli (Trx-6xHis-tagged) (receptor)
# chain: B1 chain with E14P, L59F, R96K, K108R, G122D, H155D, N193D, G243W
# notes: as for B1
# B17: V16 expressed in E. coli (Trx-6xHis-tagged) (receptor)
# chain: B1 chain with L9P, L59F, G122D, H155D
# notes: as for B1
# B18: V14 expressed in E. coli (Trx-6xHis-tagged) (receptor)
# chain: B1 chain with E14P, L44V, Q55H, L59F, G122D, G139R, H155D, Q248H, A267V
# notes: as for B1
# B19: V4 expressed in E. coli (Trx-6xHis-tagged) (receptor)
# chain: B1 chain with E14P, L44I, L68P, K108R, G122D, H155D
# notes: as for B1
# B20: V18 expressed in E. coli (Trx-6xHis-tagged) (receptor)
# chain: B1 chain with E14P, L59F, N88D, K108R, H155D
# notes: as for B1
# B21: V17 expressed in E. coli (Trx-6xHis-tagged) (receptor)
# chain: B1 chain with E14P, K102E, K108R, H155D
# notes: as for B1
# B22: V8 expressed in E. coli (Trx-6xHis-tagged) (receptor)
# chain: B1 chain with L59F, G122D, H155D
# notes: as for B1
# B23: V12 expressed in E. coli (Trx-6xHis-tagged) (receptor)
# chain: B1 chain with L9P, E14P, L59F, K108R, H116R, G122D, A156P
# notes: as for B1
# B24: V5 expressed in E. coli (Trx-6xHis-tagged) (receptor)
# chain: B1 chain with E14P, D43N, R96K, G122D
# notes: as for B1
# B25: V20 expressed in E. coli (Trx-6xHis-tagged) (receptor)
# chain: B1 chain with L9P, L44V, L59V, K108R, G122D, Q123R, A156P
# notes: as for B1
# B26: V15 expressed in E. coli (Trx-6xHis-tagged) (receptor)
# chain: B1 chain with E14P, L44V, L59F, F99I, K108R, A267V
# notes: as for B1
# Molecular target: T1, hIL-17A (human, UniProt Q16552 24-155)
# T1 construct: Bought protein
# T1 sequence (Q16552 24-155 limits assumed): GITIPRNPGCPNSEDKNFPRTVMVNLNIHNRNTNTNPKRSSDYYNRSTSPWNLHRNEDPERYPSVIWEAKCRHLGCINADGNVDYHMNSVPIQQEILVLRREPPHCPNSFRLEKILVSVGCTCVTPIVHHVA
# Assay: ELISA of cleared E. coli lysate on plate-captured hIL-17A, detected with biotinylated anti-hIL-17RA and streptavidin-HRP, OD 450 nm; concentration not given
# Description: (§1) ELISA plates (Griener Microlon 96W) were incubated with 100 μl of 0.5 μg/ml goat α-hIL-17A antibodies (R&D Systems) for 1 hour, washed with PBS supplemented with 0.05% Tween-80 (PBST) and 100 μl of 0.35 μg/ml hIL-17A (R&D Systems or ProSpec Tany TechnoGene Ltd.) were added to the plate for an additional 1 hour. The plates were then washed with PBST and blocked by incubation with 100 μl of PBS supplemented with 3% skim milk for 1 hour. Following blocking, the plates were washed and incubated with 100 μl of the cleared lysate, cell media or purified protein generated (described above) at appropriate dilutions and shaken for 1 hour. hIL-17RA (R&D Systems) was applied at a concentration of 6.25 μg/ml as a positive control, and PBS supplemented with 1% BSA as a negative control. Plates were then washed with PBST, incubated with 100 μl of 0.05 μg/ml goat α-hIL-17RA antibodies (R&D Systems) followed by a secondary peroxidase-conjugated streptavidin (Jackson, 1:10000 dilution). Finally, 100 μl of the horseradish peroxidase (HRP) chromogenic 3,3′,5,5′-tetramethylbenzidine (TMB) substrate solution (Dako) were added. The reaction was stopped by the addition of 1 M sulfuric acid and recorded at 450 nm using a Tecan Infinite M200 plate reader.
row,Binder,binding result
1,B1,binds
2,B2,binds

# Molecular target: T1, hIL-17A
# Assay: SPR (ProteOn XPR36), receptor immobilised, hIL-17A as analyte
# Description: The affinity of hIL-17A binding to hIL17RA-ECD variants was determined by SPR measurements on ProteOn XPR36 (Bio-Rad) instrument. All samples were in HBST buffer (10 mM HEPES with 0.15 M NaCl, 3.4 mM EDTA and 0.005% Tween-20, pH 7.2). A GLC Chip was air initialized and activated with EDC/S-NHS and […] from each of the hIL17RA-ECD variants were diluted in Acetate buffer pH 5.5 and immobilized onto the chip. The measured binding levels for WT hIL17RA-ECD, V3 and V10 were ˜5300RU, 6700RU and 7400RU, respectively. Following blockage of the unbound sites on the chip with Ethanolamine, the chip was flushed with HBST buffer and rotated. The hIL-17A was run at 25 μl/min. for 300 sec at various concentrations (50, 25, 12.5, 6.25 and 3.125 nM) followed by a 10-min. dissociation step. Binding parameters were determined using Langmuir single binding site model using the Bio-Rad's proteOn Manager Software V2.1.2.05.
Binder,Fold increase in affinity (against WT hIL17RA-ECD) [fold],Kd [pM],koff [s⁻¹],kon [M⁻¹ s⁻¹]
B3,4.2,624,0.000115,184000
B4,6,443,7.51e-05,170000

# Molecular target: T1, hIL-17A
# Assay: ELISA on captured hIL-17A
# Description: as §1
row,Binder,IL-17A binding relative to the WT [%]
1,B5,80
2,B3,100
3,B6,85
4,B7,45
5,B4,100
6,B8,65
7,B9,10
8,B10,80

# Molecular target: T1, hIL-17A
# Assay: ELISA on captured hIL-17A, cleared E. coli lysates
row,Binder,binding result
1,B11,binds
2,B12,binds
3,B13,binds
4,B14,binds
5,B15,binds
6,B16,binds
7,B17,binds
8,B18,binds
9,B19,binds
10,B20,binds
11,B21,binds
12,B22,binds
13,B23,binds
14,B24,binds
15,B25,binds
16,B26,binds

# Source: patent US20160376343A1 (NATIONAL INSTITUTE FOR BIOTECHNOLOGY IN THE NEGEV, published 2016)
